Source: publication PMC7392006, “Demethylase-independent function of JMJD2D as a novel antagonist of p53 to promote Liver Cancer initiation and progression”

B1: PUMA promoter p53 element (dsDNA)
DNA 1: GCGCGCCTGCAAGTCCTGACTTGTCCGCGGCG
DNA 2: CGCCGCGGACAAGTCAGGACTTGCAGGCGCGC
B2: p21 promoter p53 element (dsDNA)
DNA 1: CTGGCCGTCAGGAACATGTCCCAACATGTTGAGCTCT
DNA 2: AGAGCTCAACATGTTGGGACATGTTCCTGACGGCCAG

Biological target: p53 (recombinant, Active Motif 81091) (Homo sapiens, UniProt P04637 1-393)
Test: EMSA; no JMJD2D; 5 mM Hepes pH 7.6, 100 mM KCl, 5 mM MgCl2, 1.25 mM DTT, 0.05% NP-40, 2.25% glycerol, 1 ug poly(dI.dC); 6% polyacrylamide gel; temperature not stated
Conditions: protein: commercial; chain copies: 4; label: biotin end label; blunt

Sequence of p53 (recombinant, Active Motif 81091) (P04637 whole entry): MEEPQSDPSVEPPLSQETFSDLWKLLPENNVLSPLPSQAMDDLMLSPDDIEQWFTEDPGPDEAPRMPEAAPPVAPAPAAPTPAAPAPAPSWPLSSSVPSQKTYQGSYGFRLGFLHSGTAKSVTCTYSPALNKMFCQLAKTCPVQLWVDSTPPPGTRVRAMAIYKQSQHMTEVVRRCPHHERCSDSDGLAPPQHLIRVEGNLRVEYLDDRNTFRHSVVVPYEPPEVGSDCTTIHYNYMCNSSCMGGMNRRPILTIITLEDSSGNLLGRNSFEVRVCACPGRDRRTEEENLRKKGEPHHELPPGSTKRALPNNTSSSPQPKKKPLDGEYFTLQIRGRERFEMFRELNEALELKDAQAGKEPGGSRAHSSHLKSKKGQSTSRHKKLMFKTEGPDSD

Binder	binding result
B1	binds
B2	binds
